What all share (assay): glycopeptide array
Assay [1] addresses T1, T3 (Tn-MUC1) (PAPGST(α-GalNAc)APPAHGVTSAPDTRPAPG-OH).
T1 peptide: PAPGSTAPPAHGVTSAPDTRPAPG

Assay [2] deals with T2, T7 (Tn-MUC1) (PAPGS(α-GalNAc)T(α-GalNAc)APPAHGVTSAPDTRPAPG-OH).
T2 peptide: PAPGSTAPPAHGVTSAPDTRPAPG

Assay [3] concerns the target T3, T8 (Tn-MUC1) (PAPGST(α-GalNAc)APPAHGVTSAPDT(α-GalNAc)RPAPG-OH).
T3 peptide: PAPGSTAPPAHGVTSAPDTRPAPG

The target of assay [4] is T4, T4 (Tn-MUC1) (PAPGSTAPPAHGVT(α-GalNAc)SAPDTRPAPG-OH).
T4 peptide: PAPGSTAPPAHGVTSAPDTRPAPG

Assay [5] deals with T5, T11 (Tn-MUC1) (PAPGSTAPPAHGVT(α-GalNAc)SAPDT(α-GalNAc)RPAPG-OH).
T5 peptide: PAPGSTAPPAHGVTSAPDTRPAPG

Assay [6] deals with T6, T9 (Tn-MUC1) (PAPGSTAPPAHGVT(α-GalNAc)S(α-GalNAc)APDTRPAPG-OH).
T6 peptide: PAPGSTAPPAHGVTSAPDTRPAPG

The target of assay [7] is T7, S4 (sTn-MUC1) (PAPGSTAPPAHGVT(Neu5Ac-α(2-6)-GalNAc)SAPDTRPAPG-OH).
T7 peptide: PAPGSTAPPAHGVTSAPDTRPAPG

Assay [8] deals with T8, S9 (sTn-MUC1) (PAPGSTAPPAHGVT(Neu5Ac-α(2-6)-GalNAc)S(Neu5Ac-a(2-6)-GalNAc)APDTRPAPG-OH).
T8 peptide: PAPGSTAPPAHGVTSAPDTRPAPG

Assay [9] deals with T9, S11 (sTn-MUC1) (PAPGSTAPPAHGVT(Neu5Ac-α(2-6)-GalNAc)SAPDT(Neu5Ac-a(2-6)-GalNAc)RPAPG-OH).
T9 peptide: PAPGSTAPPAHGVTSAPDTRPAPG

B1: SEQ ID NO 9 (bivalent monospecific MUC1 IgG) (antibody, V domains shown)
VH: QVQLVQSGAEVKKPGASVKVSCKASGYTFNRHYIQWVRQAPGQGLEWMGTINPYDGSTHYAQKFQGRVTLTRDTSTTTVYMELSSLRSEDTAVYYCARDYMIGYVVFDYWGQGTLVTVSS
VL: not shown
For orientation: EC50 means the concentration that produces a half-maximal response. As for B1, the EC50 in [1] came to 21.6 µg/mL; in assay [2], 64 µg/mL; in assay [3] it was 0.034 µg/mL; in assay [4], 0.031 µg/mL; in assay [5], 0.041 µg/mL; in [6], 0.039 µg/mL. For the same molecule, the EC50 was found to be 0.031 µg/mL in assay [7], 0.046 µg/mL in [8] and 0.053 µg/mL in assay [9].

B2: 106 (antibody, V domains shown)
VH: QVQLVQSGAEMKKPGASVKISCKASGYTFTNYYIQWVRQAPGQGLEWMGVINPYDGSTNYAQRFQGRVTLTRDTSTTTVYMELSSLRSEDTAVYYCARDYMIGYVVFDFWGQGTLVTVSS
For the molecule B2, the EC50 turned out to be 99.3 µg/mL in assay [1]; 0.036 µg/mL in [3]; 0.037 µg/mL in assay [4]; 0.043 µg/mL in assay [5]; 0.032 µg/mL in [6].

B3: SEQ ID NO 5 (bivalent monospecific MUC1 IgG) (antibody, V domains shown)
VH: QVQLVQSGAEVKKPGASVKVSCKTSGYTFTRYYIQWVRQAPGQGLEWMGVINPYDGSTNYAQKFQGRVTVTRDTSTFTVYMELSSLRSEDTAVYYCARDYMRGYVIFDYWGQGTLVTVSS
VL: not shown
Regarding B3, the 50% effective concentration (EC50) was determined as 0.123 µg/mL in assay [3]; 0.116 µg/mL in assay [4]; 0.127 µg/mL in [5]; 0.113 µg/mL in assay [6]; 0.12 µg/mL in assay [7]; 0.137 µg/mL in assay [8]. In addition, in assay [9], the EC50 was found to be 0.296 µg/mL.

B4: SEQ ID NO 45 (bivalent monospecific MUC1 IgG) (antibody, V domains shown)
VH: QVQLVESGTEVKKPGASVKVSCKASGYSFIHYYIHWVRQAPGRGLEWMGVINPFDGSTNSAQNFQGRVTVTRDTSTSTVFMDLSSLRSEDTAVYYCARDNMLGYVLFDHWGQGTLVTVSS
VL: not shown
With B4, the EC50 in assay [1] came out at 52.2 µg/mL; in [3], 0.088 µg/mL; in assay [4], 0.084 µg/mL; in assay [5], 0.093 µg/mL; in assay [6], 0.083 µg/mL; in assay [7] it was 0.089 µg/mL. Moreover, the EC50 in assay [8] was determined as 0.135 µg/mL; in [9], 4.06 µg/mL.

B5: SEQ ID NO 57 (bivalent monospecific MUC1 IgG) (antibody, V domains shown)
VH: QVQLVESGTEVKKPGASVKVSCKASGYSFIHYYIHWVRQAPGRGLEWMGVINPFDGSTNYAQNFQGRVTVTRDTSTSTVFMDLSSLRSEDTAVYYCARDNMIGYVLFDHWGQGTLVTVSS
VL: not shown
In the case of B5, the EC50 in assay [3] is 0.114 µg/mL; in [4] it was 0.112 µg/mL; in [5], 0.123 µg/mL; in [6] it was 0.109 µg/mL; in [7], 0.119 µg/mL; in [8], 0.16 µg/mL. In assay [9], this molecule returned an EC50 of 0.939 µg/mL.

B6: 25 (antibody, V domains shown)
VH: QVQLVESGAEVKKPGASVKVSCKASGYTFARYYVHWVRQAPGQGLEWMGLINPYGGATNYAQNFQGRVTMTRDTSTSTVYMELSSLRSEDTAVYYCARDAMGGDSYFDYWGQGTLVTVSS
Regarding B6, the EC50 in assay [1] is 38.6 µg/mL; in assay [3] it was 0.113 µg/mL; in [4] it was 0.1 µg/mL; in [5] it was 0.129 µg/mL; in assay [6] it was 0.119 µg/mL.

B7: 82 (antibody, V domains shown)
VH: QVQLVQSGAEVKKPGASVKVSCKASGYTFTSYYIHWVRQAPGQGLEWMGVINPYDSSTNYAQKFQGRVTMTRDTSTSTVFMDLSSLRSEDTAVYYCARDNMIGYVLFDYWGQGTLVTVSS
For B7, the EC50 in assay [3] came out at 0.196 µg/mL; in assay [4], 0.145 µg/mL; in assay [5], 0.227 µg/mL; in assay [6], 0.167 µg/mL; in assay [7], 0.173 µg/mL; in assay [8], 0.83 µg/mL. In assay [9], this molecule registered an EC50 of 58.6 µg/mL.

B8: SEQ ID NO 78 (bivalent monospecific MUC1 IgG) (antibody, V domains shown)
VH: QVQLVQSGAEVKKPGTSVKVSCKASGYSFIHYYIHWVRQAPGQGLEWVGVINPFDGSTNYAQKFQGRVTVTRDTSTSAVFMDLSSLRSEDTAVYYCARDNMIGYVLFDYWGQGTLVTVSS
VL: not shown
As to B8, the EC50 turned out to be 37.9 µg/mL in assay [1]; 0.032 µg/mL in [3]; 0.034 µg/mL in [4]; 0.041 µg/mL in [5]; 0.032 µg/mL in assay [6]; 0.039 µg/mL in assay [7]. For the same molecule, the EC50 worked out at 0.067 µg/mL in assay [8] and 0.477 µg/mL in assay [9].

B9: 90 (antibody, V domains shown)
VH: QVQLVQSGAEVKKPGASVKVSCKASGYTFINHYIHWVRQAPGQGLEWMGVINPFDGSTNYAQKFQGRVTVTRDTSTSTVFLDLSSLRSEDTAVYYCARDNMIGYVLFDYWGQGTLVTVSS
On to B9, for which the EC50 amounted to 0.12 µg/mL in [3]; 0.118 µg/mL in assay [4]; 0.126 µg/mL in assay [5]; 0.102 µg/mL in assay [6]; 0.126 µg/mL in assay [7]; 0.207 µg/mL in [8]. In addition, it took 67.4 µg/mL to reach a half-maximal effect in [9] (EC50).

(Values after patent US20230250190A1 (published 2023).)
